{"source": "the DeepSol protein solubility set", "data": [{"test": "soluble on expression in E. coli; label from the status in PepcDB or PDB records", "values": [{"sequence": "MQPPPRKVKPAQEVKLRFLEQLSILQTWQQREADLLEDIRSYSKQRAAIEREYGQALQKLAGPFLKREGHRSGEMDSRGRTVFGAWRCLLDATVAGGQTRLQASDRYRDLAGGTGRSAKEQVLRKGTENLQRAQAEVLQSVRELSRSRKLYGQRERVWALAQEKAADVQARLNRSDHGIFHSRTSLQKLSTKLSAQSAQYSQQLQAARNEYLLNLVATNAHLDHYYQEELPALLKALVSELSEHLRDPLTSLSHTELEAAEVILEHAHRGEQTTSQVSWEQDLKLFLQEPGVFSPTPPQQFQPAGTDQVCVLEWGAEGVAGKSGLEKEVQRLTSRAARDYKIQNHGHRVLQRLEQRRQQASEREAPSIEQRLQEVRESIRRAQVSQVKGAARLALLQGAGLDVERWLKPAMTQAQDEVEQERRLSEARLSQRDLSPTAEDAELSDFEECEETGELFEEPAPQALATRALPCPAHVVFRYQAGREDELTITEGEWLEVIEEGDADEWVKARNQHGEVGFVPERYLNFPDLSLPESSQDSDNPCGAEPTAFLAQALYSYTGQSAEELSFPEGALIRLLPRAQDGVDDGFWRGEFGGRVGVFPSLLVEELLGPPGPPELSDPEQMLPSPSPPSFSPPAPTSVLDGPPAPVLPGDKALDFPGFLDMMAPRLRPMRPPPPPPAKAPDPGHPDPLT", "soluble on expression in E. coli": "soluble"}, {"sequence": "MQPTSITVASYNLRNANGGDSINGNGWGQRYPVIAQIVQYHDFDIFGTQECFIHQLKDMKEALPGYDYIGVGRDDGKEKGEHSAIFYRTDKFDVIEKGDFWLSETPDVPSKGWDAVLPRICSWGHFKCKDTGFEFLFFNLHMDHIGKKARVESAFLVQDKMKELGKGKELPAILTGDFNVDQTHQSYDAFVSKGVLCDSYEKAGFRYAINGTFNDFDPNSFTESRIDHIFVSPSFQVKRYGVLTDTYRSIVGKGEKKQANDCPEEIDIKTYQARTPSDHFPVKVELEFDQRQQKLEHHHHHH", "soluble on expression in E. coli": "soluble"}, {"sequence": "MQQEHRECIEQCYECAAACDICASSCLREDNVEMMKHCIQLDMQCAAICRLAAQFMALESEYSQKLCRLCADICKACAEECARHDHDHCQNCARACSQCADACLKMAALEHHHHHH", "soluble on expression in E. coli": "not soluble"}, {"sequence": "MQQKDAVPDTAKKLKAPLTGLKTEQKVTERRPVAVVVNNHPKARPQSGLSKADIVIEALAEGQITRFLAIFQSQMPETVGPVRSAREYFVTLSNGFDSIFVHHGWSPGAKKQLESGAADYMNGLDFDGSLFWRADFSKPPHNSYTSYDYIKKAAEQKGYKLKQETNPLLFQTSDAKPANESYNVRVDYGTNNVTNLVEYNYDKKAEFYTRSSDGVITTDRETGKPVAMQNIFIVEASHHIIDQDGRRDIDLESGGKGLLFQHGNVIETDWKQVNGRIVPVKDGKWLPFVPGKTWINIVPDLDAASISKGEGVLEHHHHHH", "soluble on expression in E. coli": "soluble"}, {"sequence": "MQQLKAKSLEMRTPQATKTAVLVIGGAEDKVHGREILRTFVARAGASKAYITIIPSASREPAIIGGRYIRIFEEMGAEKVEILDIREREQCDSSQIKASLEACTGVFLTGGDQLRLCGVLSDTAAMDIIRQRVRAGQLTLAGTSAGAAVMGHHMIAGGGSGETPNRSLVDMATGLGFIPEVIVDQHFHNRNRMGRLVSAIAAHPDRLGIGIDEDTCAVFERDGWLQVMGKGSVTIVDPTELTHTNEPLVSANEPLTVHNLRLHILSYGDRFHLYQRTVLPAVHRISS", "soluble on expression in E. coli": "soluble"}, {"sequence": "MQQQCDTVSAWQSLRGPGTGGYYLFKTTEGGKTDCTYVKGSNFNDAAQTATYTYGNMGSGNQMTQQTASASISGNAIVVGTDHSEVMYSDGSTCDVVRLNGQIELWIHSSATSNTGNLNSCCTDKFNQEKGSRPEHVVYRSTCPNMPQ", "soluble on expression in E. coli": "soluble"}, {"sequence": "MQQVPDKIYVSRSRLKSNRRRLINETDVERLFSRNGFQIIHPQELTIKEQINLFRHAQVIAGPLGSAMYNCVFQTKPTKKLLLTYEKFIKMSDLLINTSTNGLLYYFAGTEHKQNKSPSNTEWSINLNQLEHHHHHH", "soluble on expression in E. coli": "not soluble"}, {"sequence": "MQRLFVYGSLGPGRPNEHLMQKIGGQWQAASLRGRLLEKGWGAGMGFPGLAIDADGEEIHGHVFVSDRLAEHWPALDEFEGSEYRRVATRVTLADGAQVDAYVYALRD", "soluble on expression in E. coli": "not soluble"}, {"sequence": "MQRSLQIFCIMSAIAMAYSQGSRDDNQSAKRNDFSRDIMSFGKRSGNTADLYDRRIMAFGKRQPSYDRDIMSFGKRSAPSDFSRDIMSFGKRSSSMYDRDIMSFGKRSPVDYDRPIMAFGKRAEDYERQIMAFGRRK", "soluble on expression in E. coli": "not soluble"}, {"sequence": "MQSFTADINEINITNGKLDFSDSSLTPKFSAGIYSLNGDITGLSSNEDSRAKIDLKGKVDKYAPVIIKGSVNPLSHDAFTDIDMLFNGIELTTFTPYSGKFAGYAIDKGKLSLGLNYKLSNNKLVAENNVTLDQLTLGEVVNSEEATSLPIKFALSLLEHHHHHH", "soluble on expression in E. coli": "not soluble"}, {"sequence": "MQSPPGKPEIHKCRSPDKETFTCWWNPGTDGGLPTNYSLTYSKEGEKTTYECPDYKTSGPNSCFFSKQYTSIWKIYIITVNATNQMGSSSSDPLYVDVTYIVEPEPPRNLTLEVKQLKDKKTYLWVKWSPPTITDVKTGWFTMEYEIRLKPEEAEEWEIHFTGHQTQFKVFDLYPGQKYLVQTRCKPDHGYWSRWSQESSVEMPNDFTLKDRSRSHHHHHH", "soluble on expression in E. coli": "soluble"}, {"sequence": "MQSWYLLYCKRGQLQRAQEHLERQAVNCLAPMITLEKIVRGKRTAVSEPLFPNYLFVEFDPEVIHTTTISATRGVSHFVRFGASPAIVPSAVIHQLSVYKPKDIVDPAPPYPGDKVIITEGAFEGFQAIFTEPDGEARSMLLLNLINKEIKHSVKNTEFRKL", "soluble on expression in E. coli": "not soluble"}, {"sequence": "MQTLLLALFSLAMVQAMRDQSIAVKGRLICGDKPAANVRIKLWEEDSGPDPDDLLEAGYTDSNGEFQLSGGEAELTPIDPIFKVYHDCDDKYIPGHRKVKFLIPKSYITQGKTPKKTFDLGVLNLETIFPKEERELIVSRKRRHHPKQYINEEDSF", "soluble on expression in E. coli": "not soluble"}, {"sequence": "MQVNEEGFAIDDKEYAMKTELKFASKHSSRLKIERNVMESYSKCDAQCKEHFSELIDFGQSPVWKWIVMTIVGPSLEELKMKYKPSDIPPSTILQCGLQTMKAIHDFHQIGFLHRDIKPANYCIGYGSKSETIYVLDFGLARKYRLPNGQVRPPRPKTKMIGTPRYCSRASHRCEELGRRDDYESWFFMFIDLVDTTLIDWKGLTRPDAYAKKQELFTKLKTYEKHPMFKVISIYLDNLVYDSEVKFGVLREAITDYARGCKLTLKEPLVWFNQSTCPSPSTAPGTGASRMATNIDLKSIASDRNEENSLDRSKTGTLSFNNSKNKKPSRY", "soluble on expression in E. coli": "not soluble"}, {"sequence": "MQVPQDGEDLAGQPWYHGLLSRQKAEALLQQNGDFLVRASGSRGGNPVISCRWRGSALHFEVFRVALRPRPGRPTALFQLEDEQFPSIPALVHSYMTGRRPLSQATGAVVSRPVTWQGPLRRSFSEDTLMDGPARIEPLRARKWSNSQPADLAHMGRSREDPAGMEASTMPISALPRTSSDPVLLKAPAPLGTVADSLRASDGQLQAKAPTKPPRTPSFELPDASERPPTYCELVPRVPSVQGTSPSQSCPEPEAPWWEAEEDEEEENRCFTRPQAEISFCPHDAPSCLLGPQNRPLEPQVLHTLRGLFLEHHPGSTALHLLLVDCQATGLLGVTRDQRGNMGVSSGLELLTLPHGHHLRLELLERHQTLALAGALAVLGCSGPLEERAAALRGLVELALALRPGAAGDLPGLAAVMGALLMPQVSRLEHTWRQLRRSHTEAALAFEQELKPLMRALDEGAGPCDPGEVALPHVAPMVRLLEGEEVAGPLDESCERLLRTLHGARHMVRDAPKFRKVAAQRLRGFRPNPELREALTTGFVRRLLWGSRGAGAPRAERFEKFQRVLGVLSQRLEPDR", "soluble on expression in E. coli": "soluble"}, {"sequence": "MQVVSSATLPPTVASADLAIVGGRSSDEDVIKYSAIQTIKQEQQQQQQQQSNTALPSYNFPFFNGMQNDFPPNRMLYNDNTMQKSENDHFTGMNLSTSASSSGNSTSSKDQSRRQFYTESSNSSGNGAAATSGSNGSSSSTESKSDVFNISMNAFAATPGSKSEDHNIPSFNMLSSYYTGALKLSNSTSFANPDPYQILGPTSKNLAHSGSGQTQLWQFLLELLSDKRYSEVITWEGTQGEFKLVDPDEVARKWGERKSKPNMNYDKMSRALRYYYDKNIMAKVHGKRYAYKFDFQGIAQALQPPTASHPQDYFNSHAMGRIAPDFSSWTSANYRSLNIAGFNNGSTIFNPSVNYSAFGATGTSNNLSAARAFPLYR", "soluble on expression in E. coli": "not soluble"}, {"sequence": "MRADGFVPLQALLQLPQFHSFSIEDVQLVVNTNEKQRFTLQPGEPSTGLLIRANQGHSLQVPELELTPLETPQALPLTLVHGTFWKHWPSILLKGLSRQGRTHIHLASGLPGDPGVISGIRPNCEVAVFIDGPLALTDGIPFFCSANGVILTPGNAEGFLLPKYFKEALQLRPTRKPLSLAGDKETETQSGPKLSSRGGRRKIQQ", "soluble on expression in E. coli": "soluble"}, {"sequence": "MRAMRLVEIGKPLKLEDIPIPKPKGSQVLIKIEAAGVCHSDVHMRQGRFGNLRIVEDLGVKLPVTLGHEIAGRIEEVGDEVVGYSKGDLVAVNPWEGEGNCYYCRIGEEHLCDSPRWLGINYDGAYAEYVLVPHYKYLYKLRRLSAVEAAPLTCSGVTTYRAVRKASLDPSKTLVVIGAGGGLGTMAIQIAKAVSGATIIGVDVREEALEAAKRAGADYVINASSQDPVSEIRRITQGKGADAVIDLNNSEKTLSIYPYVLAKQGKYVMVGLFGADLKYHAPLITLNEVQFIGSLVGNQSDFLGIMSLAEAGKVKPMVTKTMKLEEANEAIDNLENFKAVGRQVLVP", "soluble on expression in E. coli": "soluble"}, {"sequence": "MRCKGFLFDLDGTLVDSLPAVERAWSNWARRHGLAPEEVLAFIHGKQAITSLRHFMAGKSEADIAAEFTRLEQIEATETEGITALPGAIALLNHLNKAGIPWAIVTSGSMPVARARHKIAGLPAPEVFVTAERVKRGKPEPDAYLLGAQLLGLAPQECVVVEDAPAGVLSGLAAGCHVIAVNAPADTPRLNEVDLVLHSLEQITVTKQPNGDVIIQ", "soluble on expression in E. coli": "not soluble"}, {"sequence": "MRCPWLIRVGVDIGGTFTDLIVFDEGSGRLESLKVLTTPREPWVGVIRALEEASVDIEGVDVVIHATTLGTNMFLGQEGLEPPSAVLITNRGFRDVLEIGRQNRPELYNLYFTRPKPLVPRDRRLVVKGRIDARGNVVEDIDRGEVARLAKEWCGRADVFIVSMLNSHINPVHEDEIGSIITREC", "soluble on expression in E. coli": "not soluble"}, {"sequence": "MRDTFPSLQAQHLHGIDEQALRPAFSTHKPRILILYGSLREVSYSRLLAFEAGRLLERLGCEVRIFDPKGLPLPDETPASHAKVQELRDLSQWSEGQVWVSPERHGAMTGIMKSQIDWIPLAVGSVRPTQGKTLAVMEVSGGSQSFNAVNQMRILGRWMRMITIPNQSSVARAFQEFDEDGRMRPSSYYDRVVDVCEELVKFTLLTRDASAYLTDRYSERKEQAAELEKRVSLKS", "soluble on expression in E. coli": "not soluble"}]}]}
